Measurements taken from US20230265151A1, “GIP/GLP1 CO-AGONIST COMPOUNDS” (priority 2020, published 2023).

What was measured:
human GLP-1 receptor [1] = biological target: human GLP-1 receptor (human, UniProt P43220 24-463); assay: cell-based or functional assay
human glucagon receptor [2] = biological target: human glucagon receptor (human, UniProt P47871 26-477); assay: cell-based or functional assay
human GIP receptor [3] = biological target: T1, human GIP receptor (human, UniProt P48546 22-466); assay: cell-based or functional assay
T1 sequence (looked up): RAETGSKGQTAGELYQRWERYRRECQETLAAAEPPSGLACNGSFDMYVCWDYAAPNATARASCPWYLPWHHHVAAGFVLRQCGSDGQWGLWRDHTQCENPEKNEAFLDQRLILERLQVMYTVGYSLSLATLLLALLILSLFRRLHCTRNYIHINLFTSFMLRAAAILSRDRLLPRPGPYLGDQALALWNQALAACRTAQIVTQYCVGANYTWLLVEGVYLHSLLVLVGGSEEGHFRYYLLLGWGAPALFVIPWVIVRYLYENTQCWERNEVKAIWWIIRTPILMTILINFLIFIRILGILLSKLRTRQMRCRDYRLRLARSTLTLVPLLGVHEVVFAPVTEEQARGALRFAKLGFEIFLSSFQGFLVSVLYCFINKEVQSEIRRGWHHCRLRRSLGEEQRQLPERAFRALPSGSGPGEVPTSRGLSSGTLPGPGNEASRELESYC

human GIP receptor [4] = biological target: T2, human GIP receptor (human, UniProt P48546 22-466); assay: SPA competition vs [125I]-GIP, hGIPR membranes
T2 construct: whole, on cells; also called hGIPR; human glucose-dependent insulinotropic polypeptide receptor
T2 sequence (looked up): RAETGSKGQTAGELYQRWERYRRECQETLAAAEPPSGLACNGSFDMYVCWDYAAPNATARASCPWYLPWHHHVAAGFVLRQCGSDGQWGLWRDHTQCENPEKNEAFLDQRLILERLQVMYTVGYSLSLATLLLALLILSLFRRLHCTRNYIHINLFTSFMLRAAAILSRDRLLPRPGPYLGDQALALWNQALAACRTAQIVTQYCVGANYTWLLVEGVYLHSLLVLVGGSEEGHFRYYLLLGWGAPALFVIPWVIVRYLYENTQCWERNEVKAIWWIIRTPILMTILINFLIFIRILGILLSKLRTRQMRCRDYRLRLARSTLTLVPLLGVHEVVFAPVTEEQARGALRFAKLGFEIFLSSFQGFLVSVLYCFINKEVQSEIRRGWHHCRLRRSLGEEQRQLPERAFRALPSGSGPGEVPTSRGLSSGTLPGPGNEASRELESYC

human GLP-1 receptor [5] = biological target: T3, human GLP-1 receptor (human, UniProt P43220 24-463); assay: SPA competition vs [125I]-GLP-1, hGLP-1R membranes
T3 construct: whole, on cells; also called hGLP-1R; human glucagon-like peptide-1 receptor
Outline: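 Kᵢ values are geometric means (SEM) over replicates run on separate days, derived from IC₅₀ of four-parameter curve fits. Buffer: HEPES 25 mM pH 7.4 with CaCl₂ 2.5 mM, MgCl₂ 1 mM, bacitracin 0.1%, TWEEN-20 0.003%, EDTA-free protease inhibitors.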

human glucagon receptor [6] = biological target: T4, human glucagon receptor (human, UniProt P47871 26-477); assay: SPA competition vs [125I]-Gcg, hGcgR membranes
T4 construct: whole, on cells; also called hGCGR; hGcgR
T4 sequence (P47871 26-477): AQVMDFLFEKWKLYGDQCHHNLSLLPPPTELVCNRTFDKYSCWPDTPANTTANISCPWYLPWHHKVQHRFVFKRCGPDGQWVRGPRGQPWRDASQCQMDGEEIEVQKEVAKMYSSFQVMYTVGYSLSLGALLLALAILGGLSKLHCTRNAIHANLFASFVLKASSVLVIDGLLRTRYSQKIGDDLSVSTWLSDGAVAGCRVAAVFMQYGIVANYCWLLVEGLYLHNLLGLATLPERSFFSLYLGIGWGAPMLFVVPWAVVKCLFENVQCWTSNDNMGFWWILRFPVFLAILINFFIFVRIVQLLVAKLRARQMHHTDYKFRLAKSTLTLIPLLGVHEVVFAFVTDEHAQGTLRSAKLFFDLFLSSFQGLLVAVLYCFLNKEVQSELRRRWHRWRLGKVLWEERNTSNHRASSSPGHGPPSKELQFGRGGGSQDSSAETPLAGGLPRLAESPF

B1: Example 246 (peptide)
peptide: YXEGTXTSDXXIXLDXIAQXEFIKXLIKGGPSSGAPPPS
modifications: Y-Aib-EGT-αMeF(2F)-TSD-4Pal-Aib-I-αMeL-LD-Orn-IAQ-Aib-EFIK((2-[2-(2-Amino-ethoxy)-ethoxy]-acetyl)2-(γ-Glu)-(10-(4-carboxyphenoxy)decanoyl))-αMeY-LIK((2-[2-(2-Amino-ethoxy)-ethoxy]-acetyl)2-(γ-Glu)-(10-(4-carboxyphenoxy)decanoyl))GGPSSGAPPPS-NH2
In the case of B1, the “cAMP EC50 (1.0% HSA)” value (human GLP-1 receptor [1]) is reported as 22.9 nM, the “cAMP EC50 (1.0% HSA)” value (human glucagon receptor [2]) is reported as > 9950 nM and the “cAMP EC50 (1.0% HSA)” value (human GIP receptor [3]) is reported as 1.63 nM.

B2: Y-Aib-EGT-αMeF(2F)-TSD-4Pal-SI-αMeL-LD-Orn-K((2-[2-(2-Amino-ethoxy)-ethoxy]-acetyl)2-(γ-Glu)-CO-(CH2)14-CH3)AQ-Aib-EFIK((2-[2-(2-Amino-ethoxy)-ethoxy]-acetyl)2- … (peptide)
peptide: YXEGTXTSDXSIXLDXKAQXEFIKXLIEGGPSSGAPPPS
modifications: Aib2, αMeF(2F)6, 4Pal10, αMeL13, Orn16, K17(Z1), Aib20, K24(Z1), αMeY25, C-term NH2; Z1=AEEA2-(γ-Glu)-CO-(CH2)14-CH3
In the case of B2, the Ki (human GIP receptor [4]) is reported as 0.0217 nM, the Ki (human GLP-1 receptor [5]) is reported as 0.301 nM and the Ki (human glucagon receptor [6]) is reported as 0.596 nM.

B3: Example 226 (peptide)
peptide: YXEGTXTSDXSIXLDXIAQXEFIKXLIKGGPSSGAPPPS
modifications: Y-Aib-EGT-αMeF(2F)-TSD-4Pal-SI-αMeL-LD-Orn-IAQ-Aib-EFIK((2-[2-(2-Amino-ethoxy)-ethoxy]-acetyl)3-(γ-Glu)-CO-(CH2)12-CO2H)-αMeY-LIK((2-[2-(2-Amino-ethoxy)-ethoxy]-acetyl)3-(γ-Glu)-CO-(CH2)12-CO2H)GGPSSGAPPPS-NH2
B3 was tested, and the “cAMP EC50 (1.0% HSA)” value (human GLP-1 receptor [1]) was 11.3 nM, the “cAMP EC50 (1.0% HSA)” value (human glucagon receptor [2]) was > 9950 nM and the “cAMP EC50 (1.0% HSA)” value (human GIP receptor [3]) was 4.86 nM.

B4: Example 259 (peptide)
peptide: YXEGTXTSDXSIXLDXKAQXKFIXXLIEGGPSSGAPPPS
modifications: Y-Aib-EGT-αMeF(2F)-TSD-OMeY-SI-αMeL-LD-Orn-K((2-[2-(2-Amino-ethoxy)-ethoxy]-acetyl)2-(γ-Glu)-CO-(CH2)12-CO2H)AQ-Aib-K((2-[2-(2-Amino-ethoxy)-ethoxy]-acetyl)2-(γ-Glu)-CO-(CH2)12-CO2H)FI-(D-Glu)-αMeY-LIEGGPSSGAPPPS-NH2
For B4, the “cAMP EC50 (1.0% HSA)” value (human GLP-1 receptor [1]) was 28.9 nM, the “cAMP EC50 (1.0% HSA)” value (human glucagon receptor [2]) was > 9950 nM and the “cAMP EC50 (1.0% HSA)” value (human GIP receptor [3]) was 2.34 nM. The “cAMP Emax (1.0% HSA)” value (human GIP receptor [3]) was 66.4%.

B5: Example 239 (peptide)
peptide: YXEGTXTSDYXIXLDXIAQXEFIKXLIKGGPSSGAPPPS
modifications: Y-Aib-EGT-αMeF(2F)-TSDY-Aib-I-αMeL-LD-Orn-IAQ-Aib-EFIK((2-[2-(2-Amino-ethoxy)-ethoxy]-acetyl)2-(γ-Glu)-(10-(4-carboxyphenoxy)decanoyl))-αMeY-LIK((2-[2-(2-Amino-ethoxy)-ethoxy]-acetyl)2-(γ-Glu)-(10-(4-carboxyphenoxy)decanoyl))GGPSSGAPPPS-NH2
B5 was tested, and the “cAMP EC50 (1.0% HSA)” value (human GLP-1 receptor [1]) was 25.2 nM, the “cAMP EC50 (1.0% HSA)” value (human glucagon receptor [2]) was > 9950 nM and the “cAMP EC50 (1.0% HSA)” value (human GIP receptor [3]) was 5.46 nM.

B6: Example 249 (peptide)
peptide: YXEGTXTSDXSIXLDXKAQXKFIXXLIEGGPSSGAPPPS
modifications: Y-Aib-EGT-αMeF(2F)-TSD-2Nal-SI-αMeL-LD-Orn-K((2-[2-(2-Amino-ethoxy)-ethoxy]-acetyl)2-(γ-Glu)-CO-(CH2)12-CO2H)AQ-Aib-K((2-[2-(2-Amino-ethoxy)-ethoxy]-acetyl)2-(γ-Glu)-CO-(CH2)12-CO2H)FI-(D-Glu)-αMeY-LIEGGPSSGAPPPS-NH2
B6 was tested, and the “cAMP EC50 (1.0% HSA)” value (human GLP-1 receptor [1]) was 51.6 nM, the “cAMP EC50 (1.0% HSA)” value (human glucagon receptor [2]) was > 9950 nM and the “cAMP EC50 (1.0% HSA)” value (human GIP receptor [3]) was 5.88 nM.

B7: Example 219 (peptide)
peptide: YXEGTXTSDXXIXLDXIAQXEFIKXLIKGGPSSGAPPPS
modifications: Y-Aib-EGT-αMeF(2F)-TSD-4Pal-Aib-I-αMeL-LD-Orn-IAQ-Aib-EFIK((2-[2-(2-Amino-ethoxy)-ethoxy]-acetyl)2-(γ-Glu)-CO-(CH2)12-CO2H)-αMeY-LIK((2-[2-(2-Amino-ethoxy)-ethoxy]-acetyl)2-(γ-Glu)-CO-(CH2)12-CO2H)GGPSSGAPPPS-NH2
With B7 the “cAMP EC50 (1.0% HSA)” value (human GLP-1 receptor [1]) was 25.9 nM, the “cAMP EC50 (1.0% HSA)” value (human glucagon receptor [2]) was > 9950 nM and the “cAMP EC50 (1.0% HSA)” value (human GIP receptor [3]) was 2.86 nM.

B8: Y-Aib-EGT-αMeF(2F)-TSDY-Aib-I-αMeL-LD-Orn-QAQ-Aib-Orn-FIK((2-[2-(2-Amino-ethoxy)-ethoxy]-acetyl)2-(γ-Glu)--C10_4CP)-αMeY-LIK((2-[2-(2-Amino-ethoxy)-ethoxy]-acet … (peptide)
peptide: YXEGTXTSDYXIXLDXQAQXXFIKXLIKGGPSSGAPPPS
modifications: Aib2, αMeF(2F)6, Aib11, αMeL13, Orn16, Aib20, Orn21, K24(Z1), αMeY25, K28(Z1), C-term NH2; Z1=AEEA2-(γ-Glu)-C10_4CP (so in the source)
B8 gave a Ki (human GIP receptor [4]) of 0.0264 nM, a Ki (human GLP-1 receptor [5]) of 0.233 nM and a Ki (human glucagon receptor [6]) of 28.6 nM.

B9: Y-Aib-EGT-αMeF(2F)-TSD-4Pal-Aib-I-αMeL-LD-Orn-QAQ-Aib-Orn-FIK((2-[2-(2-Amino-ethoxy)-ethoxy]-acetyl)-(γ-Glu)3-(10-(4-carboxyphenoxy)decanoyl))-αMeY-LIK((2-[2-(2 … (peptide)
peptide: YXEGTXTSDXXIXLDXQAQXXFIKXLIKGGPSSGAPPPS
modifications: Aib2, αMeF(2F)6, 4Pal10, Aib11, αMeL13, Orn16, Aib20, Orn21, K24(Z1), αMeY25, K28(Z1), C-term NH2; Z1=AEEA-(γ-Glu)3-(10-(4-carboxyphenoxy)decanoyl)
Binder B9 has a Ki (human GIP receptor [4]) of 0.0714 nM, a Ki (human GLP-1 receptor [5]) of 0.217 nM and a Ki (human glucagon receptor [6]) of 73.3 nM.
